Patent publication US20210208163A1 (RUSH UNIVERSITY MEDICAL CENTER, published 2021)

B1: mouse ICOSL, wild type (RGD), full-length, N-terminal His-tag (ligand, not shown: small tags and cut ends)
chain: ETEVGAMVGSNVVLSCIDPHRRHFNLSGLYVYWQIENPEVSVTYYLPYKSPGINVDSSYKNRGHLSLDSMKQGNFSLYLKNVTPQDTQEFTCRVFMNTATELVKILEEVVRLRVAANFSTPVISTSDSSNPGQERTYTCMSKNGYPEPNLYWINTTDNSLIDTALQNNTVYLNKLGLYDVISTLRLPWTSRGDVLCCVENVALHQNITSISQAESFTGNNTKNPQETHNNE
notes: also called mICOSL; WT mICOSL
B2: recombinant human B7.1 (R&D Systems, 140-B1) (ligand, UniProt P33681 35-242, looked up)
chain: VIHVTKEVKEVATLSCGHNVSVEELAQTRIYWQKEKKMVLTMMSGDMNIWPEYKNRTIFDITNNLSIVILALRPSDEGTYECVVLKYEKDAFKREHLAEVTLSVKADFPTPSISDFEIPTSNIRRIICSTSGGFPEPHLSWLENGEELNAINTTVSQDPETELYAVSSKLDFNMTTNHSFMCLIKYGHLRVNQTFNWNTTKQEHFPDN
notes: also called RGD-lacking B7.1
B3: recombinant human ICOS (R&D Systems, 169-CS) (receptor, UniProt Q9Y6W8 21-141, looked up)
chain: EINGSANYEMFIFHNGGVQILCKYPDIVQQFKMQLLKGGQILCDLTKTKGSGNTVSIKSLKFCHSQLSNNSVSFFLYNLDHSHANYYFCNLSIFDPPPFKVTLTGGYLHIYESQLCCQLKF
B4: human ICOSL (inducible co-stimulator ligand), full-length, isoform 1, N-terminal His-tag (ligand, not shown: small tags and cut ends)
chain: DTQEKEVRAMVGSDVELSCACPEGSRFDLNDVYVYWQTSESKTVVTYHIPQNSSLENVDSRYRNRALMSPAGMLRGDFSLRLFNVTPQDEQKFHCLVLSQSLGFQEVLSVEVTLHVAANFSVPVVSAPHSPSQDELTFTCTSINGYPRPNVYWINKTDNSLLDQALQNDTVFLNMRGLYDVVSVLRIARTPSVNIGCCIENVLLQQNLTVGSQTGNDIGERDKITENPVSTGEKNAAT
notes: The reagent list also names a bought human ICOSL-His Tag (Thermo Fisher 11559H08H50); also called hICOSL; B7h

Key:
[1] = target: T1, recombinant mouse integrin αvβ3 (R&D Systems, 7889-AV-050) (mouse, UniProt P43406 31-988; O54890 26-717); assay: SPR, ICOSL immobilised, inactive αvβ3 (EDTA, no Mn2+), steady-state affinity fit
T1 construct: also called mouse αvβ3 integrin

[2] = target: T1, recombinant mouse integrin αvβ3 (R&D …); assay: SPR, ICOSL immobilised, αvβ3 as analyte, 2 mM Ca2+ and 1 mM Mg2+ (inactive integrin)
[3] = target: T1, recombinant mouse integrin αvβ3 (R&D …); assay: SPR, ICOSL immobilised, αvβ3 as analyte, 0.2 mM Ca2+ and 0.1 mM Mg2+, kinetic 1:1 fit
[4] = target: T1, recombinant mouse integrin αvβ3 (R&D …); assay: SPR (Biacore T200), ICOSL immobilised on CM5, αvβ3 as analyte, Mn2+ (active integrin), kinetic 1:1 Langmuir fit (kd/ka)
[5] = target: T2, recombinant human integrin αvβ3 (R&D Systems, 3050-AV) (human, UniProt P06756 31-992; P05106 27-718); assay: SPR, Mn2+ (active integrin)
T2 construct: Analyte in SPR; also called αvβ3 integrin

[6] = target: B4; assay: SPR
[7] = target: T3, recombinant human integrin αIIbβ3 (R&D Systems, 7148-A2) (human, UniProt P08514 32-993; P05106 27-718); assay: SPR, ICOSL immobilised, integrin as analyte
T3 construct: also called αllbβ3

[8] = target: recombinant human integrin αvβ5 (R&D Systems, 2528-AV) (human, UniProt P06756 31-992; P18084 24-719); assay: SPR, ICOSL immobilised, integrin as analyte
[9] = target: T2, recombinant human integrin αvβ3 (R&D …); assay: SPR, ICOSL immobilised, inactive αvβ3 (EDTA, no Mn2+), steady-state affinity fit
[10] = target: T2, recombinant human integrin αvβ3 (R&D …); assay: SPR (Biacore T200), ICOSL immobilised on CM5, αvβ3 as analyte, Mn2+ (active integrin), kinetic 1:1 Langmuir fit (kd/ka)

T2 sequence (P06756 31-992 limits assumed, chain 1 of 2): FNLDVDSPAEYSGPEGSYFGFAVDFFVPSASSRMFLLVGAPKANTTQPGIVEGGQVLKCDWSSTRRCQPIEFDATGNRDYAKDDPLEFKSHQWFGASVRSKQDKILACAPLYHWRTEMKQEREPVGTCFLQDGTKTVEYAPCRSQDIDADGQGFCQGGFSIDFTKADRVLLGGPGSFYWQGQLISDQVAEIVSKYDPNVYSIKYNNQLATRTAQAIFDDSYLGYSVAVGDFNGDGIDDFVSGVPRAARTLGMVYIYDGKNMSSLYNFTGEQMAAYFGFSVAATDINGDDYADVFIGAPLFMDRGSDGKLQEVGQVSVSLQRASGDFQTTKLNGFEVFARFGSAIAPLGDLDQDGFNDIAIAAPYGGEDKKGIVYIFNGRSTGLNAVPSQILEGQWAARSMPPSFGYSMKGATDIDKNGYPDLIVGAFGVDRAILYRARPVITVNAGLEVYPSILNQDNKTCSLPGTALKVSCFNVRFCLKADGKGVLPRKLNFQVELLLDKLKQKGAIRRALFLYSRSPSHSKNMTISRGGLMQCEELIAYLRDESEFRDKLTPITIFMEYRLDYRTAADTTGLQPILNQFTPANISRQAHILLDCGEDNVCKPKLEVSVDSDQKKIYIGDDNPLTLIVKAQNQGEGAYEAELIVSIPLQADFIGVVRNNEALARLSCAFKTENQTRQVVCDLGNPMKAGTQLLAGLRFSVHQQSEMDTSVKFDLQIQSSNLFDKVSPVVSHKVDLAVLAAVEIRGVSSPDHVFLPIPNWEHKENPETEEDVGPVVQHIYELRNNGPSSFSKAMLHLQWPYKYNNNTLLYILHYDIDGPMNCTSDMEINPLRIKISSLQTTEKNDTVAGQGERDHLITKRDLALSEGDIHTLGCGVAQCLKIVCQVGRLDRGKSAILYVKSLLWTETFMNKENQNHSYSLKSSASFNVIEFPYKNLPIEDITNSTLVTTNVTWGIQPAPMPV
T2 sequence (P05106 27-718 limits assumed, chain 2 of 2): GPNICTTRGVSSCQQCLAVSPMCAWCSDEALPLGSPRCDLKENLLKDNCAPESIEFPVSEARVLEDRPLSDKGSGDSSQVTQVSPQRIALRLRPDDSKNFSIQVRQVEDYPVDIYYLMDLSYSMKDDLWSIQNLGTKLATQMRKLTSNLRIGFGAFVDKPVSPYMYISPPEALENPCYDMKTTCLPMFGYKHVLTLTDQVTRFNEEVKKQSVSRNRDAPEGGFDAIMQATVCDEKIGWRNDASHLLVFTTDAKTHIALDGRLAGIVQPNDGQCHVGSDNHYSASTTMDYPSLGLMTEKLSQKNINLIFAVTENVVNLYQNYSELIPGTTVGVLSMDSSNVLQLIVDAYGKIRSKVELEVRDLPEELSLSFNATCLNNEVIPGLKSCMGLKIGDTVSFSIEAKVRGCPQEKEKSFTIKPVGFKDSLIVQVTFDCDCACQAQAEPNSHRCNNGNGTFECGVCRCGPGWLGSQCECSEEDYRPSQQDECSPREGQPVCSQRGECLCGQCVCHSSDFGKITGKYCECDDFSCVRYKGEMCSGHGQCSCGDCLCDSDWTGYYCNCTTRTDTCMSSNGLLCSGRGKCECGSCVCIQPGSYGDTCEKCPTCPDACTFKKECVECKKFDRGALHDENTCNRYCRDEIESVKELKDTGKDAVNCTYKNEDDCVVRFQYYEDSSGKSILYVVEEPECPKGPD
T1 sequence (P43406 31-988 limits assumed, chain 1 of 2): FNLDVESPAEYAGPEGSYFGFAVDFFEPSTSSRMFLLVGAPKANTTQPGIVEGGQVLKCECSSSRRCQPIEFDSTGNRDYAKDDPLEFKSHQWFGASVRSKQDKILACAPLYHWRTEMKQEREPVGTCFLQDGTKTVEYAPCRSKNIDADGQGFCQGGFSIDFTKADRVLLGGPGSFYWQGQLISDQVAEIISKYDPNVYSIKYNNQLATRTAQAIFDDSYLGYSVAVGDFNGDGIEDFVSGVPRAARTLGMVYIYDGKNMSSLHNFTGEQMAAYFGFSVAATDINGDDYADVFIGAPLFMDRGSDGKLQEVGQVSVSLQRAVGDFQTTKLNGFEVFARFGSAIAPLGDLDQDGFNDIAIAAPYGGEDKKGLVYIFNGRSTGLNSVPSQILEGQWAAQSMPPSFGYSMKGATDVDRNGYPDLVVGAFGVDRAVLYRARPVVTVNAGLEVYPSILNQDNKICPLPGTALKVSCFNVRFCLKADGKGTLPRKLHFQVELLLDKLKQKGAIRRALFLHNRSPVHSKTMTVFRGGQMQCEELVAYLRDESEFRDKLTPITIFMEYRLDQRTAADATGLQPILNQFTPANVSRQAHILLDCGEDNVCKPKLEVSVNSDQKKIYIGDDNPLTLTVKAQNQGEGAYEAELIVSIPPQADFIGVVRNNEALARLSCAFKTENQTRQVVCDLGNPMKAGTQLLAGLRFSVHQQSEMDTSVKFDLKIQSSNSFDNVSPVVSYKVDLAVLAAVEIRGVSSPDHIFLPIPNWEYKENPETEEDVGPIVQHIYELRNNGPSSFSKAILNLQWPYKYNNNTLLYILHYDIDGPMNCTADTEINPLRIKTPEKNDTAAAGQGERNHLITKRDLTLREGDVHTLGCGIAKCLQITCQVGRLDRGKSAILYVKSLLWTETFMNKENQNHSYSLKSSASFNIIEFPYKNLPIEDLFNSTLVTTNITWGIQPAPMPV
T1 sequence (O54890 26-717 limits assumed, chain 2 of 2): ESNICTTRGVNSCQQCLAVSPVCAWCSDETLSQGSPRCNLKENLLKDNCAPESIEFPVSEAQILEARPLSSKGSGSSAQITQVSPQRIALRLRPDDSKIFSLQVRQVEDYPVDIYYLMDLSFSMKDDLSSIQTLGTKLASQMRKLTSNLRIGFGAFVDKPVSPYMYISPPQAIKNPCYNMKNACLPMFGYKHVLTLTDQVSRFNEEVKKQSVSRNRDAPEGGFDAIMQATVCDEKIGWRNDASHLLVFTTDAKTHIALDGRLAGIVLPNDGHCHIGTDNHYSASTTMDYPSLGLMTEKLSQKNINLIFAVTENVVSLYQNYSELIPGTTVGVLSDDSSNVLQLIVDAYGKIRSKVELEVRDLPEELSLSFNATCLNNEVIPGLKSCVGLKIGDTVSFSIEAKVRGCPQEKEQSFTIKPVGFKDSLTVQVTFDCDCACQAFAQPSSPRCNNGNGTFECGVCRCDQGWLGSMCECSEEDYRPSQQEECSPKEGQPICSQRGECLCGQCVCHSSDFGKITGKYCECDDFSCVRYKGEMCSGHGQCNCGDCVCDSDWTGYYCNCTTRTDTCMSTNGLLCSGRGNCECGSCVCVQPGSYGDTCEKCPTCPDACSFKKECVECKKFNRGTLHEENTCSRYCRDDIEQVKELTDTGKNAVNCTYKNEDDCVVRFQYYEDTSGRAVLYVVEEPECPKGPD
Chain of recombinant human integrin αvβ5 (R&D Systems, 2528-AV) (P06756 31-992 limits assumed, chain 1 of 2): as the sequence (P06756 31-992 limits assumed, chain 1 of 2) above
Chain of recombinant human integrin αvβ5 (R&D Systems, 2528-AV) (P18084 24-719 limits assumed, chain 2 of 2): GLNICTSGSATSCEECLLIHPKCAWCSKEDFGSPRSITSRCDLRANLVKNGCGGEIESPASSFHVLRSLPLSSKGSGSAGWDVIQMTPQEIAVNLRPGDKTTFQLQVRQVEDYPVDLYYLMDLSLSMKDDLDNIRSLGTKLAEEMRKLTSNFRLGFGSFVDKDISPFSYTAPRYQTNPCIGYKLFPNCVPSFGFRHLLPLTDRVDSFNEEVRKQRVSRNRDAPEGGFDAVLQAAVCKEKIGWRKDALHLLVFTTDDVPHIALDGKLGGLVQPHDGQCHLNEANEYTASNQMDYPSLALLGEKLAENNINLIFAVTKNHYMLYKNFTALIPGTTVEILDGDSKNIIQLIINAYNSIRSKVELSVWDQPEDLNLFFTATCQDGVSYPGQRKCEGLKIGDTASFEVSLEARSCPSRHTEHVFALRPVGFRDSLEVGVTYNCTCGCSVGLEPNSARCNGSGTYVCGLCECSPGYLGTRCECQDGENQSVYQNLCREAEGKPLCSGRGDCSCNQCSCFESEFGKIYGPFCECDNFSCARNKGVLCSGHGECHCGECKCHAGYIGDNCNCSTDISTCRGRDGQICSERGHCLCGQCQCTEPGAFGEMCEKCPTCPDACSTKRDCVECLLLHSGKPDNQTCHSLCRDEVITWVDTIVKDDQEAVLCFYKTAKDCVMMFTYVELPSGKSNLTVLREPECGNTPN
T3 sequence (P08514 32-993 limits assumed, chain 1 of 2): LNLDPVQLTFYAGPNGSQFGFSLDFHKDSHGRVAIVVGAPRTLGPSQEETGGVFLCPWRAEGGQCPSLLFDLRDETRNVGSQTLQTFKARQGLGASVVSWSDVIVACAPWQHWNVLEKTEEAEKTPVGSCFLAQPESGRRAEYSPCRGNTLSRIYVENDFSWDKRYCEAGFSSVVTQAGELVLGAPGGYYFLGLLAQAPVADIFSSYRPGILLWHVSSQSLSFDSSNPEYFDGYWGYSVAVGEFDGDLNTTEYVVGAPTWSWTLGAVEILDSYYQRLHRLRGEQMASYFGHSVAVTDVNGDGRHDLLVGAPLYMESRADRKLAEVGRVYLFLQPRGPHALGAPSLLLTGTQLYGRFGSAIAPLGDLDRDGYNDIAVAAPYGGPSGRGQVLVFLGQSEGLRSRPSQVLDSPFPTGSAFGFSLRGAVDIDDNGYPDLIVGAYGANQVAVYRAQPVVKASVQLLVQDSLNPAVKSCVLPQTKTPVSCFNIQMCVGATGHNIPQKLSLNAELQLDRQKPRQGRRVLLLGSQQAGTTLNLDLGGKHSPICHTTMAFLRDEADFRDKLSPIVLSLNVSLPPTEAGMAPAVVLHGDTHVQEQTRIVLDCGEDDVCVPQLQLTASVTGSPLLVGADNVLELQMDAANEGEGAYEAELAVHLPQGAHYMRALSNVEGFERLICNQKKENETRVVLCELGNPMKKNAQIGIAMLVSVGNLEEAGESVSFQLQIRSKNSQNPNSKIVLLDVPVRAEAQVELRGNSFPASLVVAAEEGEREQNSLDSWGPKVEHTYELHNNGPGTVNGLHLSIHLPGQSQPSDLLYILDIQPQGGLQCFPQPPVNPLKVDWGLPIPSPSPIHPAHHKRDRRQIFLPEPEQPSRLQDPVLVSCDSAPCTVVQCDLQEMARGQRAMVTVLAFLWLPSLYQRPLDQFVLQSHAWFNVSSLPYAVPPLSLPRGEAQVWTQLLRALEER
T3 sequence (P05106 27-718 limits assumed, chain 2 of 2): as the sequence (P05106 27-718 limits assumed, chain 2 of 2) above

Binder: B1
Kd [1]: ≥ 2000 µM
Kd [2]: 0.4 µM
Kd [3]: 0.0213 µM
Kd [4]: 0.0242 µM

Binder: B2
binding result [5]: no binding

Binder: B3
Kd [6]: 0.005 µM

Binder: B4
binding result [7]: no binding
binding result [8]: no binding
Kd [9]: 0.412 µM
Kd [10]: 0.0162 µM
